The chains are these.
B1: human dynamin-related protein 1 (Drp1) isoform 3, wild type, N-terminally His6-tagged (enzyme, UniProt O00429-4 1-699, looked up)
chain: MEALIPVINKLQDVFNTVGADIIQLPQIVVVGTQSSGKSSVLESLVGRDLLPRGTGIVTRRPLILQLVHVSQEDKRKTTGEENGVEAEEWGKFLHTKNKLYTDFDEIRQEIENETERISGNNKGVSPEPIHLKIFSPNVVNLTLVDLPGMTKVPVGDQPKDIELQIRELILRFISNPNSIILAVTAANTDMATSEALKISREVDPDGRRTLAVITKLDLMDAGTDAMDVLMGRVIPVKLGIIGVVNRSQLDINNKKSVTDSIRDEYAFLQKKYPSLANRNGTKYLARTLNRLLMHHIRDCLPELKTRINVLAAQYQSLLNSYGEPVDDKSATLLQLITKFATEYCNTIEGTAKYIETSELCGGARICYIFHETFGRTLESVDPLGGLNTIDILTAIRNATGPRPALFVPEVSFELLVKRQIKRLEEPSLRCVELVHEEMQRIIQHCSNYSTQELLRFPKLHDAIVEVVTCLLRKRLPVTNEMVHNLVAIELAYINTKHPDFADACGLMNNNIEEQRRNRLARELPSAVSRDKVASGGGGVGDGVQEPTTGNWRGMLKTSKAEELLAEEKSKPIPIMPASPQKGHAVNLLDVPVPVARKLSAREQRDCEVIERLIKSYFLIVRKNIQDSVPKAVMHFLVNHVKDTLQSELVGQLYKSSLLDDLLTESEDMAQRRKEAADMLKALQGASQIIAEIRETHLW
notes: Dynamin-related protein 1 (Drp1), human, isoform 3, 699 aa residues; the last six residues R694-W699 (RETHLW) are the CT-SLiM; also called WT Drp1; WT; not shown: His6 (36 aa-residue N-terminal tag), N-terminal, kept
B2: mouse GIPC-1 (GAIP interacting protein, C-terminus 1), full length (natural protein, UniProt Q9Z0G0 1-333, looked up)
chain: MPLGLGRRKKAPPLVENEEAEPSRSGLGVGEPGPLGGSAAGESQMGLPPPPAALRPRLVFHTQLAHGSPTGRIEGFTNVKELYGKIAEAFRLPAAEVMFCTLNTHKVDMDKLLGGQIGLEDFIFAHVKGQRKEVEVFKSEEALGLTITDNGAGYAFIKRIKEGSVIDHIQLISVGDMIEAINGQSLLGCRHYEVARLLKELPRGRTFTLKLTEPRKAFDMISQRSAGGHPGSGPQLGTGRGTLRLRSRGPATVEDLPSAFEEKAIEKVDDLLESYMGIRDTELAATMVELGKDKRNPDELAEALDERLGDFAFPDEFVFDVWGAIGDAKVGRY
notes: N-terminal IDR, GH1, PDZ and GH2 domains; GST removed after purification by HRV3C proteolysis; also called full-length GIPC-1; source: subcloned in pGEX-6P1, expressed and purified using standard protocols; aggregates removed by centrifugation and/or gel filtration; not shown: GST, N-terminal, cleaved
B3: human Drp1 (isoform 3) ΔCT4, last four residues of the CT-SLiM removed (enzyme, UniProt O00429-4 1-695, looked up)
chain: MEALIPVINKLQDVFNTVGADIIQLPQIVVVGTQSSGKSSVLESLVGRDLLPRGTGIVTRRPLILQLVHVSQEDKRKTTGEENGVEAEEWGKFLHTKNKLYTDFDEIRQEIENETERISGNNKGVSPEPIHLKIFSPNVVNLTLVDLPGMTKVPVGDQPKDIELQIRELILRFISNPNSIILAVTAANTDMATSEALKISREVDPDGRRTLAVITKLDLMDAGTDAMDVLMGRVIPVKLGIIGVVNRSQLDINNKKSVTDSIRDEYAFLQKKYPSLANRNGTKYLARTLNRLLMHHIRDCLPELKTRINVLAAQYQSLLNSYGEPVDDKSATLLQLITKFATEYCNTIEGTAKYIETSELCGGARICYIFHETFGRTLESVDPLGGLNTIDILTAIRNATGPRPALFVPEVSFELLVKRQIKRLEEPSLRCVELVHEEMQRIIQHCSNYSTQELLRFPKLHDAIVEVVTCLLRKRLPVTNEMVHNLVAIELAYINTKHPDFADACGLMNNNIEEQRRNRLARELPSAVSRDKVASGGGGVGDGVQEPTTGNWRGMLKTSKAEELLAEEKSKPIPIMPASPQKGHAVNLLDVPVPVARKLSAREQRDCEVIERLIKSYFLIVRKNIQDSVPKAVMHFLVNHVKDTLQSELVGQLYKSSLLDDLLTESEDMAQRRKEAADMLKALQGASQIIAEIRE
notes: Dynamin-related protein 1 (Drp1), human, isoform 3 (699 aa residues), with the last four residues removed; also called ΔCT4 Drp1; ΔCT4/6
B4: human Drp1 (isoform 3) ΔCT6, last six residues (whole CT-SLiM) removed (enzyme, UniProt O00429-4 1-693, looked up)
chain: MEALIPVINKLQDVFNTVGADIIQLPQIVVVGTQSSGKSSVLESLVGRDLLPRGTGIVTRRPLILQLVHVSQEDKRKTTGEENGVEAEEWGKFLHTKNKLYTDFDEIRQEIENETERISGNNKGVSPEPIHLKIFSPNVVNLTLVDLPGMTKVPVGDQPKDIELQIRELILRFISNPNSIILAVTAANTDMATSEALKISREVDPDGRRTLAVITKLDLMDAGTDAMDVLMGRVIPVKLGIIGVVNRSQLDINNKKSVTDSIRDEYAFLQKKYPSLANRNGTKYLARTLNRLLMHHIRDCLPELKTRINVLAAQYQSLLNSYGEPVDDKSATLLQLITKFATEYCNTIEGTAKYIETSELCGGARICYIFHETFGRTLESVDPLGGLNTIDILTAIRNATGPRPALFVPEVSFELLVKRQIKRLEEPSLRCVELVHEEMQRIIQHCSNYSTQELLRFPKLHDAIVEVVTCLLRKRLPVTNEMVHNLVAIELAYINTKHPDFADACGLMNNNIEEQRRNRLARELPSAVSRDKVASGGGGVGDGVQEPTTGNWRGMLKTSKAEELLAEEKSKPIPIMPASPQKGHAVNLLDVPVPVARKLSAREQRDCEVIERLIKSYFLIVRKNIQDSVPKAVMHFLVNHVKDTLQSELVGQLYKSSLLDDLLTESEDMAQRRKEAADMLKALQGASQIIAEI
notes: Dynamin-related protein 1 (Drp1), human, isoform 3 (699 aa residues), with the last six residues R694-W699 removed; also called ΔCT6 Drp1; DCT6 Drp1

Data set [1] concerns the molecule itself. Put plainly: SEC-MALS; nucleotide-free apo state in solution; Superose 6 10/300 GL column; 5 uM protein at injection (Fig. 1E), other injection concentrations in Fig. S2C. On the technique in general: In gel filtration, larger molecules generally elute earlier.
Data set [2] deals with the molecule itself. Put plainly: negative-stain EM; 2-D class averages of single particles; Drp1 at 2 uM, apo state and with 1 mM GTP.
Data set [3] deals with the molecule itself. Put plainly: SEC-MALS; full-length GIPC-1, unliganded, 10 uM at injection; Superdex 200 10/300 GL column; dimer to monomers.
The target of data set [4] is B4. Put plainly: negative-stain EM; 2-D class averages; apo Drp1 (2 uM) with GIPC-1 (8 uM), 1:4 molar ratio. The conditions noted are these: both partners purified.
The target in data set [5] is B1. Put plainly: negative-stain EM; Drp1 (1.5 uM) pre-incubated with GIPC-1 (6 uM) for 15 min at room temperature, then CL-containing liposomes (50 uM total lipid) for 15 min; equimolar and 1:4 ratios. To be noted: both partners purified.

The term stoichiometry N denotes the number of molecules, sites or subunits per partner or assembly.

“And” between values parts separate entries of the source, which are not always exact repeats. Identical values can stand only once.

On to B1, for which the “stoichiometry N” value was 4 in data set [1] and 2 in data set [2].

With B2, in data set [3], the “stoichiometry N” value came to 2. Moreover, the binding result in data set [4] and in data set [5] was “binds” each time.

As to B3, the “stoichiometry N” value in data set [1] was 2 and 4.

On to B4, for which the “stoichiometry N” value in data set [1] is 2 and 4.

For the origin of these results see PMC10371074, “Allosteric control of dynamin-related protein 1-catalyzed mitochondrial fission through a conserved disordered C-terminal Short Linear Motif” (Research Square, 2023).
